According to article doi:10.1101/2020.05.09.085852 (bioRxiv, 2020):

Target: the molecule itself
Assay: crystal structure

B1: YukC413.strep (domain or fragment, B. subtilis 168, UniProt P71070 1-413, looked up)
chain: MSGEQKSYLENQLEAVAEKTDAGYTFTFQREKIKLLDGLEANVIKDINPFFHKEIDVTDDEVIITIQPPSSYKAFRFMKAKDKKSKWQFAYQLVQAVQQHNLSRLNLIVAPENIVFDKGLTPYFLHYGVKESIPPYERDEERVWQELKAAAALAVDGAFAFEDYLKFNETLTFSAEAKAILDAESYDDLLELIQTHIDELEAKAKTYIHIPRKKWNIQRYIGLGLIVLLVPALIYSMYALFFAQPKHQAIVDSNRAFLNKQYSEVISTLSKYDAESLPESVQYQLATSYVEVENLGSAKTKNIENNLVTLQSDPQHFLYWIDYGRGEYKEAISIGRKLEYNDYIYFALAKYKQQLLSEDTNDEDIQKELDSVNSELEKAQKERQENKQSNSETSLVDTSEEQTQTDEEKQAEE
stoichiometry N: 2
